Assay in all cases: cell-based or functional assay
The target of assay [1] is T1, human GLP-1 receptor (human, UniProt P43220 24-463).
Assay [2] addresses T2, human amylin-3 (a) receptor (human, UniProt P30988 25-474; O60896 24-148).
T2 sequence (looked up) 1: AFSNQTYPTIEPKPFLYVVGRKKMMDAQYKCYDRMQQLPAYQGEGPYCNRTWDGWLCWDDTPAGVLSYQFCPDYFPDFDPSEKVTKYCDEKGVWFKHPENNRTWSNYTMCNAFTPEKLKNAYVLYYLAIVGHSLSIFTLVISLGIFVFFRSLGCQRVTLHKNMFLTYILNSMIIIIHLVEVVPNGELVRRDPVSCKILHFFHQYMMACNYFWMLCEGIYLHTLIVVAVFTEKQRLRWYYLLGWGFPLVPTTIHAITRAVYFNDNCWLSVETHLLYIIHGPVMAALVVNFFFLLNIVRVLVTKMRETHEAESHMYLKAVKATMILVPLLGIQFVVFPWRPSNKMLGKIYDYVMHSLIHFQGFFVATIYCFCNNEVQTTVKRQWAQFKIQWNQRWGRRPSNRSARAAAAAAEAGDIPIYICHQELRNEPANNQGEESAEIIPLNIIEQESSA
T2 sequence (looked up) 2: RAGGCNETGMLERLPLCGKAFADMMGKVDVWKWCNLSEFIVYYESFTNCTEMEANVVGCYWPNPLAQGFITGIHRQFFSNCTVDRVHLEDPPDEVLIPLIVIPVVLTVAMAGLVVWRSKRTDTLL

Assay [3] deals with T2, human amylin-3 (a) receptor. This is another data set of the same source.
The target of assay [4] is T1, human GLP-1 receptor. This is another data set of the same source.
The target of assay [5] is T2, human amylin-3 (a) receptor. The source holds these as a separate data set.
Assay [6] addresses T1, human GLP-1 receptor. The source holds these as a separate data set.

Where two headings read alike, the source gives them in different places. Starred links: 1 amine or outer side, 2 acyl side, 3 side chain; linkers in the order of their positions; H or OH if unused. Non-standard residues stand in square brackets, D forms with d. Groups on a side chain read outwards from the residue. No end group written: not given here. *: point of attachment. C20 diacid = O=C(O)CCCCCCCCCCCCCCCCCCC(=O)*; C18 diacid = O=C(O)CCCCCCCCCCCCCCCCC(=O)*; C16 diacid = O=C(O)CCCCCCCCCCCCCCC(=O)*; γGlu = O=C(O)[C@H](CCC(=O)[*:2])N[*:1]; εLys = N[C@@H](CCCCN[*:1])C(=O)[*:2]; Trx = NC[C@H]1CC[C@H](C(=O)O)CC1; AEEA = NCCOCCOCC(=O)O; Aib = CC(C)(N)C(=O)O

This is an account of results in patent US20260132182A1 (published 2026).

B1: Comparator compound 0164 (peptide)
peptide: H[Aib]EGTFTSDVSSYLEGQAAKEIFAWLVRGRK([εLys-AEEA-AEEA-γGlu-C18 diacid])GGEASELSTAALGRLSAELHELATLPRTETGSGSP-NH2
With B1, in assay [1], the “Human GLP-1R potency [EC50 (pM)]” value worked out at 852 pM. The “Human AmyR3 potency [EC50 (pM)]” value in assay [2] came to 29.6 pM.

As for KCNTATCATQRLANFLVHSSNNFGPILPPTNVGSNTY [Pramlintide], the “Human AmyR3 potency [EC50 (pM)]” value in assay [3] and in assay [2] was 7.8 pM throughout.

B2: Comparator compound 0185 (peptide)
peptide: H[Aib]EGTFTSDVSSYLEGQAAKEFIAWLVRGRK([εLys-AEEA-AEEA-γGlu-C18 diacid])GGEASELSTAALGRPSAELHELATLPRTETGSGSP-NH2
In the case of B2, the “Human GLP-1R potency [EC50 (pM)]” value in assay [1] was 13.1 pM. In addition, the “Human AmyR3 potency [EC50 (pM)]” value in assay [2] was 5660 pM.

B3: Comparator compound 0015 (peptide)
peptide: H[Aib]EGTFTSDVSSYLEGQAAK([AEEA-AEEA-γGlu-C18 diacid])EFIAWLVRGRGGQEPGQEPCNTATCATQRLAEFLRHSSNNFGPILPPTNVGSNTP-NH2
modifications: ends and bridges not checked
B3: the “Human GLP-1R potency [EC50 (pM)]” value in assay [1] is 45 pM. Also, in assay [2], the “Human AmyR3 potency [EC50 (pM)]” value stood at 312 pM.

B4: Compound 0111 (peptide)
peptide: H[Aib]EGTFTSDVSSYLEEQAAREFIAWLVRGRK([AEEA-AEEA-γGlu-C18 diacid])GGGGEASELSTAALGRLSAELHELATLPRTETGSGSP-NH2
B4: the “Human GLP-1R potency [EC50 (pM)]” value in assay [4] and in assay [6] was 3 pM each time. For the same molecule, the “Human AmyR3 potency [EC50 (pM)]” value in assay [5] and in assay [3] was 11.5 pM each time.

B5: Comparator compound 0192 (peptide)
peptide: H[Aib]EGTFTSDVSSYLEEQAAREFIAWLVRGRK([AEEA-AEEA-γGlu-Trx-C20 diacid])GGGGEASELSTAALGRPSAELHELATLPRTETGSGSP-NH2
B5: the “Human GLP-1R potency [EC50 (pM)]” value in assay [1] amounted to 10.8 pM. Further, in assay [2], the “Human AmyR3 potency [EC50 (pM)]” value was 10000 pM.

B6: Comparator compound 0672 (peptide)
peptide: H[Aib]EGTFTSDVSSYLEEQAAREFIAWLVRGRK([AEEA-AEEA-γGlu-C18 diacid])GGGGEKCNTATCATQRLAEFLRHSSNNFGPILPPTNVGSNTP-NH2
modifications: ends and bridges not checked
As to B6, in assay [6], the “Human GLP-1R potency [EC50 (pM)]” value came to 2.2 pM. Further, the “Human AmyR3 potency [EC50 (pM)]” value in assay [3] was found to be 606 pM.

B7: Comparator compound 0167 (peptide)
peptide: H[Aib]EGTFTSDVSSYLEEQAAREIFAWLVRGRK([AEEA-AEEA-γGlu-Trx-C20 diacid])GGGGEASELSTAALGRLSAELHELATLPRTETGSGSP-NH2
In the case of B7, in assay [1], the “Human GLP-1R potency [EC50 (pM)]” value is 10000 pM. Further, in assay [2], the “Human AmyR3 potency [EC50 (pM)]” value was found to be 10.9 pM.

B8: Comparator compound 0671 (peptide)
peptide: H[Aib]EGTFTSDVSSYLEEQAAREFIAWLVRGRK([AEEA-AEEA-γGlu-C18 diacid])GGGGEKCNTATCATQRLANFLVHSSNNFGPILPPTNVGSNTY-NH2
modifications: ends and bridges not checked
Take B8: in assay [6], the “Human GLP-1R potency [EC50 (pM)]” value was determined as 4.5 pM. In assay [3], the “Human AmyR3 potency [EC50 (pM)]” value was 230 pM.

As for EASELSTAALGRLSAELHELATLPRTETGSGSP-NH2 (not fully specified) [Compound 1806], in assay [3], the “Human AmyR3 potency [EC50 (pM)]” value amounted to 5 pM.

B9: Comparator compound 0668 (peptide)
peptide: H[Aib]EGTFTSDVSSYLEGQAAK([AEEA-AEEA-γGlu-C18 diacid])EFIAWLVRGRGGQEPGQEPK([γGlu-γGlu-C16 diacid])CNTATCATQRLADFLRHSSPNFGAIPSSTNVGSRTY-NH2
modifications: ends and bridges not checked
With B9, the “Human GLP-1R potency [EC50 (pM)]” value in assay [1] turned out to be 455 pM. The “Human AmyR3 potency [EC50 (pM)]” value in assay [2] was determined as 10000 pM.

B10: Comparator compound 0016 (peptide)
peptide: H[Aib]EGTFTSDVSSYLEGQAAK([AEEA-AEEA-γGlu-C18 diacid])EFIAWLVRGRGGQEPGQEPK([AEEA-AEEA-γGlu-C18 diacid])CNTATCATQRLAEFLRHSSNNFGPILPPTNVGSNTP-NH2
modifications: ends and bridges not checked
Turning to B10, the “Human GLP-1R potency [EC50 (pM)]” value in assay [1] worked out at 510 pM. Further, the “Human AmyR3 potency [EC50 (pM)]” value in assay [2] turned out to be 1550 pM.
